These results are taken from the RNAGym collection of RNA variant scans (doi:10.1073/pnas.2313332121).

B1: TPR t1 (parent)
chain: GACCAAUCUGCCCUCAGAGCUCGAGAACAUCUUCGGAUGCAGAGGAGGCAGGCUUCGGUGGCGCGAUAGCGCCAACGUCCUCAACCUCCAAUGCAUCCCACCACAUGAUGAUGCCUGAAGAGCCUUGGUUUUUUG

In the series the parent is B1. Put plainly: polymerase ribozyme fitness, log enrichment relative to wild type (log ratio); higher = more active; in vitro selection for triplet polymerase activity. The method in brief:
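Mutant libraries for each subunit of a heterodimeric triplet polymerase ribozyme were made by PCR and then transcribed. Each library underwent one round of in vitro selection in triplicate: annealing with a biotinylated primer, the partner subunit and triplets, frozen incubation at −7 °C, gel excision of extended constructs, streptavidin-bead capture and RT-PCR. Input and output libraries were Illumina-sequenced, and only genotypes with ≥10 input reads and ≥1 read per output were kept. Fitness is the logarithm, base 2, of genotype enrichment over wild-type enrichment, computed from inverse-variance-weighted replicate averages.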
Turning to A18C G39U C49U G120C, the “polymerase ribozyme fitness (log ratio)” value was -4.35.
Turning to G17U A18C G57C, the “polymerase ribozyme fitness (log ratio)” value is -2.66.
For A18G A43U C101G G120A the value was -4.32; for G17U C34G A50G, -7.24.
For G17A G39U C49G U78C G117U, the “polymerase ribozyme fitness (log ratio)” value is -5.4.
For A16G A41C A84U C99A G117C U133C the value was -4.53; for A18U G117U, -4.36; for G19A C20U U55G G57U C99A G113U, -6.19.
A18C G63A U92G U112C G117A: the “polymerase ribozyme fitness (log ratio)” value is -4.55.
For A16U G63C G120U U125C the value was -0.937; for A18G C72G A84G U92A C115A, -5.47; for A16U C72G, -1.5.
For A18U C62U C89A U133A the value was -2.36; for G17U C64U U78C, -3.17.
Then G17U C89G C104U, with -2.94; and G19A A29G, with -3.47.
Take A18C G135U: the “polymerase ribozyme fitness (log ratio)” value is -3.23.
Then A18C G39C A41U C123U, with -2.25; and A16G C76G G120A, with -2.25.
Then G17U G52C A74U G77U C123U, with -2.34.
For A18G G63A C115A C123U the value was -6.7.
Regarding A18U C85U C94G, the “polymerase ribozyme fitness (log ratio)” value was -5.59.
Turning to A18G G58A C79G A118G, the “polymerase ribozyme fitness (log ratio)” value is -7.2.
For G17A G47U the value was -4.84.
Then A16U C79U C86A G120U G128A, with -4.89; and G17A U55A G77U C115U U125A, with -0.205; and G17U G48U C70U U78C U87G U112A, with -4.19.
For G17U A27U G42A A43U C85U C124A U133A the value was -5.61; for A18U A24C A27U C40U G63C C89G U116A A121G, -5.65.
With G19A C53A U125G, the “polymerase ribozyme fitness (log ratio)” value is -3.26.
In the case of A16G G69C A84G C102A C114U C115A, the “polymerase ribozyme fitness (log ratio)” value is -6.44.
For A18U G44U G110A the value was -5.32.
For G17U A24G U32C G61C G117C the value was -6.76; for A16G A43G C124U U125A, -1.48; for A18U C94G A121C U126G, -5.02.
Consider A18U A41C, for which the “polymerase ribozyme fitness (log ratio)” value was -2.34.
For A18G C88U G113U the value was -2.52; for A18C G42U G69C, -3.2; for A16G C40A C49G, -3.32.
For A16U A50C C56A A95C the value was -3.91; for G17U G135U, -3.6; for G17U G52U C62A C70U, -4.32.
For G17A U78C U129C the value was -3.37; for A16U C72G G122A, -2.16; for G17U C20A C49U, -5.73.
Regarding G17U A84U U96G G128U U130C, the “polymerase ribozyme fitness (log ratio)” value is -3.54.
Take G17A G42U U106A: the “polymerase ribozyme fitness (log ratio)” value is -5.21.
Then A16G C22A G47U G48U C64U C123G, with -6.67; and A16U C104U, with -1.25.
Turning to G17U G44U C72G C85U U96A A121G C124G, the “polymerase ribozyme fitness (log ratio)” value is -3.95.
For A18C U32C A37U A50U G60A A83U, the “polymerase ribozyme fitness (log ratio)” value is -4.99.
For the variant A18G A68G U116G C123U, the “polymerase ribozyme fitness (log ratio)” value is -5.7.
Then A18C G45A C53U G113A, with -3.09.
For G17C A75G C101U the value was -5.29; for A18C U32C A46U A90U C114U, -3.04.
With A18G A43U G71U U87C, the “polymerase ribozyme fitness (log ratio)” value was -4.47.
For A16U G52A C72U the value was -1.31; for A16U C70G, -2.98; for A18U C104A, -4.32.
For A18U U54A A83U the value was -4.98.
Consider A18U C124A, for which the “polymerase ribozyme fitness (log ratio)” value was -0.753.
For A16U G61A U81A C88G the value was -3.75.
On to A16U C28U C76G C82U U116A, for which the “polymerase ribozyme fitness (log ratio)” value is -3.83.
Then G17A C123U, with -2.01.
Then G17A G77U U78A A118U, with -4.97.
Then A18G G19A C88U A90G, with -1.41; and A18G C70U C82A, with -6.34.
As for G17A G69C U112A, the “polymerase ribozyme fitness (log ratio)” value is -4.29.
Regarding A18G G57U G69A C85U G120U, the “polymerase ribozyme fitness (log ratio)” value was -7.29.
Regarding A16G G61U A66U U81A U106A U116C, the “polymerase ribozyme fitness (log ratio)” value was -0.459.
Turning to G17A G23U G61U C76U C114A, the “polymerase ribozyme fitness (log ratio)” value is -5.73.
For A18U G48A C49A C85G U133A the value was -3.22.
Then A18C C88U A90G C114G, with -0.417.
On to A18U G47U G52A, for which the “polymerase ribozyme fitness (log ratio)” value was -5.39.
For A18U G44C G69U the value was -0.776.
For A16U C85U the value was -2.77; for A18C A91U, -1.86.
Then A18U C72U C97U, with -3.15; and A16U U59A C124A, with 1.46.
As for A18U C72G, the “polymerase ribozyme fitness (log ratio)” value is -2.48.
Then G17U U78A, with -2.93.
Then A18U A43C A121C, with -0.924.
Then A16U U96A, with -2.28; and A16U G42C A43G G45U C73A U129A, with -3.44.
For A18C A50C G60A A84G U92A, the “polymerase ribozyme fitness (log ratio)” value is -6.2.
Then G17U U21A C62G A75C C124U, with -4.5.
For G17A G48A U87G G117A the value was -2.48; for G17A A43G G127A, -4.18.
Regarding A18C G110A, the “polymerase ribozyme fitness (log ratio)” value is -3.98.
For A18U C22G G58U U59G U87G the value was -4.24; for G17A U55A G63U A84G, -7.59.
On to A16G A74U, for which the “polymerase ribozyme fitness (log ratio)” value was -1.36.
Then A16U G69U C98U A121C U130A, with -0.111; and A16U U78C, with -2.22.
For G17A C49G A83U U87C G117A the value was -3.65.
For G17A G110A the value was -4.08; for G17C U106G C115G, 0.318.
For the variant A18U A41U C114U C115G U116G A121G G122U, the “polymerase ribozyme fitness (log ratio)” value is -3.05.
Take A18C G42A G44U C53G G93A: the “polymerase ribozyme fitness (log ratio)” value was -4.64.
Then G19A C70A C94U, with -5.61; and A16G G52A C56A G69U, with -1.69; and G17U U55A, with -2.43.
Then A16U C62U U81G A121U, with -2.2; and A16U C114A, with -4.01.
Then A18G C80U, with -3.36.
For A16U C89A, the “polymerase ribozyme fitness (log ratio)” value is -2.6.
Then A16U C40U U87G U92A, with -5.02.
As for A16U G117C G120A, the “polymerase ribozyme fitness (log ratio)” value was -4.52.
For A18U U81A the value was -3.77; for A18G C20A C79U G117C, -3.24; for G19A C40U C53A G58C G93U, -4.4.
Then G17U G45U G61U U81A, with -3.74; and G17U A27U C40A C64A C85A G117C G127A U129A, with -6.49; and A18C G45U, with -3.69.
Regarding A18U A29U U54G C89G C114G, the “polymerase ribozyme fitness (log ratio)” value is -3.41.
Then A16U U32C U38G G71A C114G A121U U133A, with -6.3; and A18G G127U, with -4.06.
For A16G C49A C73U the value was -0.946; for A16G A46U C124U, -0.673.
Take G17C C49G C62A: the “polymerase ribozyme fitness (log ratio)” value was -7.71.
Then A18C C20U A84C U96C G117U G127A, with -5.53; and A18U A41C C88U U92C C104U A111C U125G U132C, with -4.68.
For A18U G36U G48U G69U G120U G122U the value was -1.69; for A16G C76G G117A C123G G135U, -1.57; for A16U G58A C72U, -1.69.
For A16C U32G G69A U109C G135A the value was -6.26; for G17A A18C C22U G35A A75U C79G A90G C99A C124G, -5.46; for A18C A83C A91G A111C, -3.03.
For the variant G19A A41U C62U C94U, the “polymerase ribozyme fitness (log ratio)” value is -3.23.
Consider A16G G93A G120A G122U U130G, for which the “polymerase ribozyme fitness (log ratio)” value is -3.58.
Then A18G C56G A103C C115G U129G U130C, with -6.47; and G17U A46C C62U U112A C115A U132G U134A, with 0.56.
On to G17U A121G, for which the “polymerase ribozyme fitness (log ratio)” value was 0.688.
Then A18U C72G C115U G128A, with -4.57.
Then A18C G52C U96C, with -3.84.
Then G17U G71A, with -3.25.
For the variant A18U G52U G61A, the “polymerase ribozyme fitness (log ratio)” value is -2.78.
Then A18U G69A, with -5.06.
For A18U C76A C94U U112C the value was -1.22; for G17A G61U, -2.6.
Then G17A G61A, with -2.34; and A18U A43U, with -1.
As for A16C U112C, the “polymerase ribozyme fitness (log ratio)” value was -0.921.
Then G17U G42U G128A, with -5.51; and G17C U54G C94A U112G, with -6.12; and G17A G48A C102A A119U C123A, with -6.09.
For G17C G48A C80U A83C A95G C123G the value was -6.14; for A18U A43C C49U, -3.92; for A16U C22G C64U, -4.96.
Then A16U U21C G60A G71U U112G G113A, with -5.57; and G17U A43G G57U, with -4.19.
As to A16U U116G, the “polymerase ribozyme fitness (log ratio)” value worked out at 0.557.
For A16G C22U G45U C64G C86G A121C the value was -7.27; for G17U A95G U131A, -2.77; for A16U G39U, -3.47.
Then A18U G39U C104U U112A, with -1.88; and A18G C22A G42C U54G G63C U112G, with -5.39.
Then A18C G47U A111U U129G, with -7.66; and A18U G60U U92G, with -3.05.
Turning to A16U C56G, the “polymerase ribozyme fitness (log ratio)” value is -2.56.
Then A18C A43G G47C U54C C114U U126A, with -5.87; and A18C A41G C101G, with -5.9.
For A16C U38G A46U C56A U59A U87G the value was -4.62; for A18U C123G U129A, -1.83.
Then G17U A18C C53G, with -3.98; and G17U C49A G61A, with -2.67.
With G17A U109A G117A C124A, the “polymerase ribozyme fitness (log ratio)” value was -5.22.
